± gives the standard deviation of the averaged measurements.
B1: library; a variant is named by its letters at N, in order (parent)
chain: GCUGUCACCGGUGCUUGGUACGUUAUAUUCAGCCGGUCUGAUGAGUCUNNNNNNAGACGAAACAGC

Experiments:
[1] = variants of: B1; test: FACS-Seq fitted mean relative fluorescence mCherry/BFP without ligand (log10 relative fluorescence); HEK293T overexpressing SLC46A1; higher = higher reporter protein expression; details: without (6R,S)-folinic acid; ligand present: no
Outline: (§1)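 To measure fluorescence, a normal distribution was fitted to read counts across sorted bins. The reporter libraries were HEK293T cells transduced by lentivirus with mCherry under ribozyme-switch control and an EF1α-BFP marker, enriched and then kept with or without ligand for 48 h. Sorting used 6 mCherry/BFP bins, and bin genomic DNA was PCR-amplified and sequenced on MiSeq. Fitted means of log10(mCherry/BFP) were scaled to five spiked-in control ribozymes.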

[2] = variants of: B1; test: normalized RNA/DNA level without ligand (relative to sTRSVctl = 100) (log10 (% of sTRSVctl)); HEK293T overexpressing SLC46A1; higher = less ribozyme self-cleavage, higher mRNA level; details: without (6R,S)-folinic acid; ligand present: no
Outline: (§2)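 Total RNA, extracted with EDTA 72 h after HEK293T cells were transfected with 4 µg per 6-well well of reporter-linked ribozyme switch library plasmids, was reverse-transcribed, amplified, barcoded and sequenced. Ligand, if used, was added 1 h before transfection. RNA level was derived from RNA reads divided by DNA reads and normalized to a spiked-in non-cleaving sequence or to the top sequences. This was multiplied by 100 and log10-transformed, with the top set of 25 sequences and a ≥100 DNA read minimum.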

[3] = variants of: B1; test: FACS-Seq fitted mean relative fluorescence mCherry/BFP with ligand (log10 relative fluorescence); HEK293T overexpressing SLC46A1; ligand concentration (+) FACS-Seq: 6 mM; higher = higher reporter protein expression; details: with (6R,S)-folinic acid; ligand present: yes
Outline: as §1

[4] = variants of: B1; test: normalized RNA/DNA level with ligand (relative to sTRSVctl = 100) (log10 (% of sTRSVctl)); HEK293T overexpressing SLC46A1; ligand concentration (+) RNA-Seq: 6 mM; higher = less ribozyme self-cleavage, higher mRNA level; details: with (6R,S)-folinic acid; ligand present: yes
Outline: as §2

Variant | FACS-Seq fitted mean (log10) [1] | normalized RNA/DNA level without ligand (log10) [2] | FACS-Seq fitted mean (log10) [3] | normalized RNA/DNA level with ligand (log10) [4]
AUGCAA | 0.349 ± 0.0069 | 1.9632 ± 0.00072 | 0.36 ± 0.083 | 1.976 ± 0.011
AUGCAC | 0.724 ± 0.038 | 2.001 ± 0.0052 | 0.703 ± 0.1 | 2.014 ± 0.01
AUUAAA | 0.22 ± 0.063 | 1.974 ± 0.0062 | 0.296 ± 0.21 | 1.992 ± 0.0089
GUCUCG | 0.378 ± 0.032 | 1.997 ± 0.0037 | 0.197 ± 0.26 | 2.003 ± 0.013
GUGCCG | 0.617 ± 0.24 | 2.0438 ± 0.0018 | 0.702 ± 0.27 | 2.04 ± 0.052
AUCUUA | 0.327 ± 0.012 | 2.042 ± 0.0064 | 0.337 ± 0.14 | 2.03 ± 0.043
AUCUUG | 0.284 ± 0.023 | 1.952 ± 0.0043 | 0.288 ± 0.16 | 2.01 ± 0.028
GUCGCA | 0.512 ± 0.053 | 2.03 ± 0.021 | 0.745 ± 0.29 | 2.01 ± 0.041
GUCGCC | 0.306 ± 0.12 | 2.015 ± 0.012 | 0.25 ± 0.17 | 2.02 ± 0.052
AUGUAG | 0.508 ± 0.058 | 1.864 ± 0.016 | 0.615 ± 0.17 | 1.99 ± 0.035
UUCCAA | 0.112 ± 0.15 | 1.992 ± 0.0026 | 0.213 ± 0.13 | 2 ± 0.028
GUGGGA | -0.679 ± 0.016 | 2.018 ± 0.0036 | -0.94 ± 0.38 | 2.03 ± 0.025
GUGGGC | 0.414 ± 0.04 | 1.788 ± 0.0052 | 0.738 ± 0.17 | 1.98 ± 0.024
CUCGCU | 0.424 ± 0.087 | 2.06 ± 0.044 | 0.349 ± 0.091 | 2.02 ± 0.038
CUCGCA | 0.235 ± 0.086 | 2.06 ± 0.013 | 0.416 ± 0.3 | 2.062 ± 0.011
UUGAAA | 0.358 ± 0.051 | 1.936 ± 0.014 | 0.286 ± 0.27 | 2.02 ± 0.028
UUGAAG | 0.386 ± 0.00085 | 1.75 ± 0.026 | 0.374 ± 0.21 | 1.981 ± 0.0095
GUCCGA | 0.497 ± 0.025 | 2.017 ± 0.0041 | 0.383 ± 0.061 | 2.007 ± 0.0092
GUCCGG | -0.054 ± 0.18 | 2.042 ± 0.011 | -0.0351 ± 0.41 | 2.05 ± 0.063
AUCGGA | 0.397 ± 0.17 | 1.99 ± 0.0013 | 0.345 ± 0.48 | 2 ± 0.039
UUCAAA | 0.198 ± 0.18 | 1.972 ± 0.0074 | 0.0558 ± 0.029 | 2.009 ± 0.019
UUCAAG | 0.372 ± 0.12 | 1.85 ± 0.014 | 0.562 ± 0.035 | 2.01 ± 0.034
UUCAAU | 0.465 ± 0.017 | 2.004 ± 0.013 | 0.748 ± 0.3 | 1.98 ± 0.052
CUAUGU | 0.286 ± 0.071 | 2.01 ± 0.023 | 0.152 ± 0.23 | 2.023 ± 0.014

Variant | FACS-Seq fitted mean (log10) [1] | normalized RNA/DNA level without ligand (log10) [2] | FACS-Seq fitted mean (log10) [3] | normalized RNA/DNA level with ligand (log10) [4]
GUGAGG | 0.394 ± 0.093 | 1.872 ± 0.0053 | 0.497 ± 0.2 | 2.015 ± 0.0075
GUGAGA | 0.474 ± 0.23 | 1.973 ± 0.013 | 0.54 ± 0.081 | 2.02 ± 0.022
CUCGAG | 0.167 ± 0.042 | 1.96 ± 0.02 | 0.115 ± 0.2 | 1.977 ± 0.012
CUGGCU | 0.556 ± 0.0076 | 2.033 ± 0.016 | 0.55 ± 0.13 | 2.02 ± 0.036
GUCUGG | 0.433 ± 0.03 | 2.027 ± 0.0089 | 0.385 ± 0.25 | 2.07 ± 0.063
GUCUGC | 0.325 ± 0.12 | 2.025 ± 0.0038 | 0.295 ± 0.085 | 2.07 ± 0.053
GUCCAG | 0.335 ± 0.07 | 1.966 ± 0.011 | 0.103 ± 0.16 | 1.975 ± 0.018
GUCAAG | 0.249 ± 0.027 | 1.974 ± 0.0083 | 0.168 ± 0.075 | 2.03 ± 0.045
AUCUCG | 0.399 ± 0.02 | 1.976 ± 0.012 | 0.435 ± 0.35 | 2.04 ± 0.035
GUGGUU | 0.311 ± 0.089 | 2.014 ± 0.0041 | 0.443 ± 0.013 | 2.02 ± 0.037
GUGGUG | 0.383 ± 0.21 | 1.92 ± 0.024 | 0.306 ± 0.32 | 2 ± 0.043
UUGGUG | 0.364 ± 0.16 | 1.75 ± 0.031 | 0.52 ± 0.26 | 2.01 ± 0.053
AUAUGU | 0.367 ± 0.12 | 1.9129 ± 0.00064 | 0.417 ± 0.46 | 2.0205 ± 0.0011
CUGCAG | 0.542 ± 0.11 | 1.91 ± 0.021 | 0.679 ± 0.4 | 1.977 ± 0.0074
UUUAAG | 0.386 ± 0.13 | 1.769 ± 0.0025 | 0.698 ± 0.2 | 1.96 ± 0.046
AUCACA | 0.256 ± 0.074 | 2.004 ± 0.0041 | 0.0653 ± 0.038 | 2.02 ± 0.032
AUGGCG | 0.284 ± 0.024 | 1.91 ± 0.022 | 0.359 ± 0.058 | 2.04 ± 0.031
UUCGGC | 0.0747 ± 0.019 | 2.043 ± 0.013 | -0.314 ± 0.0053 | 2.04 ± 0.054
GUGCGA | 0.238 ± 0.11 | 1.999 ± 0.014 | 0.278 ± 0.38 | 2.02 ± 0.044
GUGCGU | 0.436 ± 0.15 | 1.9915 ± 0.0017 | 0.582 ± 0.16 | 2.008 ± 0.017
AUGGGG | 0.139 ± 0.026 | 1.841 ± 0.0025 | 0.258 ± 0.36 | 2.03 ± 0.062
AUGGGA | 0.263 ± 0.012 | 1.925 ± 0.015 | 0.269 ± 0.049 | 2.01 ± 0.03
GUCACC | 0.379 ± 0.15 | 2.07 ± 0.021 | 0.061 ± 0.042 | 2.063 ± 0.013
GUCACG | 0.0918 ± 0.029 | 2.024 ± 0.0084 | 0.228 ± 0.096 | 2.042 ± 0.015

Variant | FACS-Seq fitted mean (log10) [1] | normalized RNA/DNA level without ligand (log10) [2] | FACS-Seq fitted mean (log10) [3] | normalized RNA/DNA level with ligand (log10) [4]
CUAUUU | 0.149 ± 0.064 | 1.984 ± 0.0088 | -0.0506 ± 0.019 | 1.984 ± 0.016
CUAUUG | 0.309 ± 0.21 | 2.023 ± 0.011 | 0.316 ± 0.2 | 2.01 ± 0.0053
AUGGUU | 0.245 ± 0.097 | 1.98 ± 0.026 | 0.136 ± 0.14 | 2.01 ± 0.027
AUGGUA | 0.132 ± 0.069 | 1.91 ± 0.0083 | 0.165 ± 0.17 | 1.98 ± 0.038
AUGGUG | 0.433 ± 0.026 | 1.786 ± 0.011 | 0.485 ± 0.12 | 2.01 ± 0.024
CUGUAU | 0.306 ± 0.094 | 1.981 ± 0.0073 | 0.479 ± 0.11 | 2 ± 0.021
UUCUGC | 0.411 ± 0.14 | 2.049 ± 0.02 | 0.336 ± 0.038 | 2.04 ± 0.052
UUCUGG | 0.429 ± 0.029 | 1.887 ± 0.0036 | 0.696 ± 0.12 | 2.03 ± 0.037
AUGAGC | -0.023 ± 0.066 | 1.998 ± 0.0094 | 0.192 ± 0.3 | 2.03 ± 0.028
AUGAGA | 0.466 ± 0.025 | 1.944 ± 0.014 | 0.537 ± 0.077 | 2.014 ± 0.016
AUGAGU | 0.287 ± 0.0094 | 1.788 ± 0.017 | 0.639 ± 0.18 | 1.97 ± 0.04
AUGGAC | 0.279 ± 0.031 | 1.955 ± 0.0055 | 0.259 ± 0.12 | 1.99 ± 0.022
AUGGAG | 0.271 ± 0.039 | 1.735 ± 0.0043 | 0.622 ± 0.21 | 1.97 ± 0.02
AUGGAA | 0.0999 ± 0.019 | 1.919 ± 0.0071 | -0.0772 ± 0.045 | 1.993 ± 0.0063
GUCUAU | 0.0107 ± 0.49 | 2 ± 0.014 | 0.473 ± 0.4 | 2.02 ± 0.026
AUGAUG | 0.408 ± 0.071 | 1.87 ± 0.023 | 0.544 ± 0.23 | 1.98 ± 0.023
AUGAUU | 0.418 ± 0.17 | 1.989 ± 0.0036 | 0.334 ± 0.023 | 2.02 ± 0.027
UUGGAA | 0.241 ± 0.03 | 1.9 ± 0.025 | 0.528 ± 0.17 | 1.99 ± 0.029
UUGGAG | -0.00192 ± 0.0051 | 1.71 ± 0.035 | 0.315 ± 0.1 | 1.99 ± 0.016
UUCACU | -0.112 ± 0.034 | 2.059 ± 0.0067 | -0.112 ± 0.28 | 2.041 ± 0.02
UUAUGU | 0.389 ± 0.12 | 1.919 ± 0.0091 | 0.413 ± 0.13 | 1.987 ± 0.019
UUGGGG | 0.207 ± 0.029 | 1.824 ± 0.0037 | 0.521 ± 0.12 | 2.02 ± 0.036
UUGGGU | 0.184 ± 0.18 | 1.943 ± 0.0059 | 0.455 ± 0.16 | 1.98 ± 0.033
